Data taken from article PMC1636458 (Nucleic Acids Research, 2006).
Where two headings read alike, the source gives them in different places.

Columns and labels:
[1] = target: T1, TBPm3 (altered specificity TATA-binding protein mutant) (UniProt P13393 1-240, I194F;V203T;L205V); experiment: EMSA kinetics
T1 sequence: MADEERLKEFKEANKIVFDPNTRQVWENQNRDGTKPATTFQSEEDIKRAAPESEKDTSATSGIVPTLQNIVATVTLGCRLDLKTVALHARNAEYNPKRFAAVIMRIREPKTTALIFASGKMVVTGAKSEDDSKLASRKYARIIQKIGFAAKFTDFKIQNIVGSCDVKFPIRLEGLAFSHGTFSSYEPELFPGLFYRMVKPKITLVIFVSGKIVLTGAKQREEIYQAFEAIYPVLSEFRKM

[2] = target: T2, Brf1 (TFIIB-related factor, subunit of TFIIIB) (S. cerevisiae, UniProt P29056 1-596); experiment: native gel or EMSA
T2 sequence (looked up): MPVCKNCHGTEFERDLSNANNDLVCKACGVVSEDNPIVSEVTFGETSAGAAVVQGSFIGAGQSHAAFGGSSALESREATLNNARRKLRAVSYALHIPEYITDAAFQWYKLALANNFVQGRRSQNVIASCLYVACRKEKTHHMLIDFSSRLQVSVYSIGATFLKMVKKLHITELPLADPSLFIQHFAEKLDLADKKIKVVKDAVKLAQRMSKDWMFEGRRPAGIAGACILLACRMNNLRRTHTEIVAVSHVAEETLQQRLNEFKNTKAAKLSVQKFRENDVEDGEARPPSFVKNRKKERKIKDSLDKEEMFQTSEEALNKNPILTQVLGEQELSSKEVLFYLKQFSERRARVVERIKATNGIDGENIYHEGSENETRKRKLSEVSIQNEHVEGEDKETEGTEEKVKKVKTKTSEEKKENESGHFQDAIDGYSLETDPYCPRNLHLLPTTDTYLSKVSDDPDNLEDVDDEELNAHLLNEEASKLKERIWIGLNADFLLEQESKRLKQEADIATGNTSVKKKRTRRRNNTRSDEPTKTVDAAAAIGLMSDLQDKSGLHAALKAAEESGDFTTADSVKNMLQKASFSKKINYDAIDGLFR

[3] = target: T1, TBPm3 (altered specificity TATA-binding …); experiment: MPE-Fe
[4] = target: T1, TBPm3 (altered specificity TATA-binding …); experiment: EMSA kinetics; remark: listed apart in the source

B1: TATA probe (U6 TATA box), 26 bp (dsDNA)
DNA 1: CGTGACTACTATAAATAGATGATCCG
DNA 2: CGGATCATCTATTTATAGTAGTCACG
[1]
  Kd: 0.3 nM

B2: TBPm3 (altered specificity TATA-binding protein mutant) (natural protein, S. cerevisiae, UniProt P13393 1-240, looked up)
chain: T1 sequence
[2]
  binding result: binds

B3: 76 bp DNA with favored sequence TGTAAATTG (dsDNA)
DNA 1: CGCTGCAATCTCTTTTTCAATTGCTCCGGACTGTAAATTGGCGGTCCCTTACTCTTTCCTCAACAATTAACGGCCC
DNA 2: GGGCCGTTAATTGTTGAGGAAAGAGTAAGGGACCGCCAATTTACAGTCCGGAGCAATTGAAAAAGAGATTGCAGCG
[3]
  binding result: binds

B4: TGTA probe, 26 bp (dsDNA)
DNA 1: CGTGACTACTGTAAATAGATGATCCG
DNA 2: CGGATCATCTATTTACAGTAGTCACG
[4]
  Kd: 0.6 nM
